{"source": "patent US20040180443", "about": "“Methods for transfer of DNA segments” (Stratagene, published 2004)", "target": "Cre recombinase (Bacteriophage P1?, UniProt P06956 P06956:1-343)", "sequence (P06956 whole entry, one chain of several)": "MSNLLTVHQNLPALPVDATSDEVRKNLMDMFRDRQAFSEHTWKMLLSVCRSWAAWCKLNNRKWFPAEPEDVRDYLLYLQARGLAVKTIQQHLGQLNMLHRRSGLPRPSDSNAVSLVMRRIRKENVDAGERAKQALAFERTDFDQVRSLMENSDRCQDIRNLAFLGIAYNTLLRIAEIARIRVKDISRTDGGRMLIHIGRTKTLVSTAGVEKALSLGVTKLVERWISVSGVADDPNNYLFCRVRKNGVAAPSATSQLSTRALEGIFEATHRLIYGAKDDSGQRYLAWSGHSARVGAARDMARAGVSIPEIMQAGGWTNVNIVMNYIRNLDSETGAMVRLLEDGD", "test": "in vitro loxP x loxP plasmid co-integration, 50 mM Tris pH 7.5, 10 mM MgCl2, 30 mM NaCl, 37 C 45 min; read out by product vector rescue in E. coli (1.2x10^4 and 8.2x10^5 colonies per ug second vector)", "settings": "tags: Stratagene; chain copies: 4", "experimental": "To rescue the product vector from the co-integrate vector, chemically competent XL1-blue or XL10 gold (kanR) (both strains from Stratagene, LaJolla, Calif.) were transformed with the above recombination reaction. Either strain has high transformation efficiencies and carries the F′ plasmid required to render the host infectable by filamentous phages such as f1. Transformation was performed by mixing 2.5 μl of the recombination reaction with 100 μl of competent cells, incubation on ice for 20 minutes and subsequent hear shock at 42° C. for 45 seconds. After the heat shock, 1 ml of 1×NZY, 10 μl of Exassist helper phage (10⁸ pfu; Stratagene, LaJolla, Calif.) and 100 μl of a fresh stationary culture of XLOLR-S^R were added and incubated for 2 hours at 37° C. while shaking. The XLOLR-S^R strain serves as the secondary host. The secondary host can be selected for with Streptomycin. Exassist is used as a helper phage allowing packaging of the rescued single-stranded product vector. […]\nPlasmid DNA of 18 blue colonies were analyzed by restriction digestion. […] All white colonies analyzed by restriction digestion were indistinguishable from the second vector and presumably resulted form mutations in the rpsL insert serving as the negative selectable marker. […]", "data": [{"binder": "loxP site (wild type) in first and second vectors (dsDNA) DNA 1: CGAATTGGAGCTATAACTTCGTATAATGTATGCTATACGAAGTTATCATATGGCGGTGGCGGCCGCTCTAGAAC DNA 2: GTTCTAGAGCGGCCGCCACCGCCATATGATAACTTCGTATAGCATACATTATACGAAGTTATAGCTCCAATTCG", "values": [{"measurement": "binding result", "result": "binds"}]}]}
